Measured values as given in patent publication US6137031, “DNA binding proteins that interact with NPR1” (Duke University, dated 2000).

B1: AHBP-1b (full-length, two-hybrid prey in pJG4-5) (other)
chain: MADTSPRTDVSTDDDTDHPDLGSEGALVNTAASDSSDRSKGKMDQKTLRRLAQNREAARKSRLRKKAYVQQLENSRLKLTQLEQELQRARQQGVFISGTGDQAHSTGGNGALAFDAEHSRWLEEKNKQMNELRSALNAHAGDSELRIIVDGVMAHYEELFRIKSNAAKNDVFHLLSGMWKTPAERCFLWLGGFRSSELLKLLANQLEPMTERQLMGINNLQQTSQQAEDALSQGMESLQQSLADTLSSGTLGSSSSGNVASYMGQMAMAMGKLGTLEGFIRQADNLRLQTLQQMIRVLTTRQSARALLAIHDYFSRLRALSSLWLARPRE
B2: TGA6 (full-length, two-hybrid prey in pJG4-5) (other)
chain: MADTSSRTDVSTDGDTDHRDLGSDRGHMHAAASDSSDRSKDKLDQKTLRRLAQNREAARKSRLRKKAYVQQLENSRLKLTQLEQELQRARQQGVFISSSGDQAHSTGGNGALAFDAEHSRWLEEKNRQMNELRSALNAHAGDTELRIIVDGVMAHYEELFRIKSNAAKNDVFHLLSGMWKTPAERCFLWLGGFRSSELLKLLANQLEPMTERQVMGINSLQQTSQQAEDALSQGMESLQQSLADTLSSGTLGSSSSDNVASYMGQMAMAMGQLGTLEGFIRQADNLRLQTLQQMLRVLTTRQSARALLAIHDYSSRLRALSSLWLARPRE
B3: NPR1 1-177 (pEGNPR11-177) (other)
chain: MDTTIDGFADSYEISSTSFVATDNTDSSIVYLAAEQVLTGPDVSALQLLSNSFESVFDSPDDFYSDAKLVLSDGREVSFHRCVLSARSSFFKSALAAAKKEKDSNNTAAVKLELKEIAKDYEVGFDSVVTVLAYVYSSRVRPPPKGVSECADENCCHVACRPAVDFMLEVLYLAFIF

Key:
[1] = molecular target: full-length tomato NPR1 homolog (tomato); experiment: yeast two-hybrid, β-galactosidase reporter
[2] = molecular target: full-length A. thaliana NPR1 (two-hybrid bait in pEG202) (Arabidopsis thaliana) (UniProt P93002); experiment: yeast two-hybrid, β-galactosidase reporter
[3] = molecular target: npr1-2 mutant NPR1 bait (Arabidopsis thaliana, UniProt P93002); experiment: yeast two-hybrid, β-galactosidase activity
[4] = molecular target: npr1-1 mutant NPR1 bait (Arabidopsis thaliana, UniProt P93002); experiment: yeast two-hybrid, β-galactosidase activity
[5] = molecular target: NPR1 1-432 (pEGNPR11-432) (Arabidopsis thaliana) (UniProt P93002); experiment: yeast two-hybrid, β-galactosidase reporter
[6] = molecular target: NPR1 178-593 (pEGNPR1178-593) (Arabidopsis thaliana) (UniProt P93002); experiment: yeast two-hybrid, β-galactosidase reporter
[7] = molecular target: B1; experiment: yeast two-hybrid, β-galactosidase activity

| Molecule | units of β-galactosidase activity [2] | binding result [3] | binding result [4] | further results |
| --- | --- | --- | --- | --- |
| NIF1 (NPR-1-Interacting Factor 1) | – | – | – | units of β-galactosidase activity [1]: 1290 units |
| OBF5 (full-length, two-hybrid prey in pJG4-5) (from UniProt Q39163) | 7.6 units | – | – | – |
| B1 | 673 units | no binding | no binding | units of β-galactosidase activity [5]: 522 units; units of β-galactosidase activity [6]: 17.6 units |
| B2 | 372 units | no binding | no binding | – |
| B3 | – | – | – | binding result [7]: no binding |
